From doi:10.1101/2023.08.10.552813 (2023)
Read-outs that look alike come from different tables or passages of the source.

B2: mouse Interleukin 33 (residues 112-270) (ligand)
chain: SIQGTSLLTQSPASLSTYNDQSVSFVLENGCYVINVDDSGKDQEQDQVLLRYYESPCPASQSGDGVDGKKVMVNMSPIKDTDIWLHANDKDYSVELQRGDVSPPEQAFFVLHKKSSDFVSFECKNLPGTYIGVKDNQLALVEEKDESCNNIMFKLSKI

What was measured:
Assay in all cases: SPR
[1] = molecular target: B2
[2] = molecular target: T1, HpARI point mutant of residue Y112 (Heligmosomoides polygyrus bakeri, biotinylated with EZ-Link Sulfo-NHS-Biotin where immobilised for SPR)
[3] = molecular target: T2, HpARI point mutant of residue E70 (Heligmosomoides polygyrus bakeri, biotinylated with EZ-Link Sulfo-NHS-Biotin where immobilised for SPR)
[4] = molecular target: T3, HpARI point mutant of residue W107 (Heligmosomoides polygyrus bakeri, biotinylated with EZ-Link Sulfo-NHS-Biotin where immobilised for SPR)
[5] = molecular target: T1, HpARI point mutant of residue Y112; remark: listed apart in the source
[6] = molecular target: T2, HpARI point mutant of residue E70; remark: listed apart in the source
[7] = molecular target: T3, HpARI point mutant of residue W107; remark: listed apart in the source
[8] = molecular target: T4, HpARI-N152 (HpARI with an N-linked glycan inserted at residue 152, interface A) (Heligmosomoides polygyrus bakeri, N-linked glycan at residue 152)
[9] = molecular target: T4, HpARI-N152 (HpARI with an N-linked …); remark: listed apart in the source
[10] = molecular target: B2

B1: HpARI_CCP1/2 (HpARI with CCP3 truncated) (domain or fragment)
chain: AGQRCRFTDVERDKGYTGMLLKGRLRKTAGNGRTVELICGRGNHNYTCESGVLKESSPRQARCGCKGILEMLFDMPKEERPSPMYDSVTYDPTPNTPTTVGKDGIWNGVDYRNGSTVKPYCDTGPVINGSSKAVCVSGKWVPTLGVCPK
modifications: biotinylated with EZ-Link Sulfo-NHS-Biotin where immobilised for SPR
[1]
  koff: 0.00201 s⁻¹

## B2
[2]
  Kd: ~0.5 nM
[3]
  Kd: ~0.3 nM
[4]
  Kd: ~1.2 nM
[5]
  Kd: 0.528 nM
  koff: 9.33e-05 s⁻¹
[6]
  Kd: 0.31 nM
  koff: 9.89e-05 s⁻¹
[7]
  Kd: 1.18 nM
  koff: 0.000162 s⁻¹
[8]
  koff: 6.12e-05 s⁻¹
[9]
  Kd: 0.0474 nM

B3: Heligmosomoides polygyrus Alarmin Release Inhibitor (HpARI), full-length (natural protein)
chain: AGQRCRFTDVERDKGYTGMLLKGRLRKTAGNGRTVELICGRGNHNYTCESGVLKESSPRQARCGCKGILEMLFDMPKEERPSPMYDSVTYDPTPNTPTTVGKDGIWNGVDYRNGSTVKPYCDTGPVINGSSKAVCVSGKWVPTLGVCPKMCSIGSLKENGKFVDVTATTKGDELNPPPREQTLIPIVRKVDKDKVQHGVKVVALCKAEDSTTAAEGVQEFECDNGKWKPEPVPCP
modifications: biotinylated with EZ-Link Sulfo-NHS-Biotin where immobilised for SPR
[1]
  koff: 4.51e-05 s⁻¹

B4: HpARI-LD (full-length HpARI with residues 180-188 of the CCP3 loop deleted) (natural protein)
chain: AGQRCRFTDVERDKGYTGMLLKGRLRKTAGNGRTVELICGRGNHNYTCESGVLKESSPRQARCGCKGILEMLFDMPKEERPSPMYDSVTYDPTPNTPTTVGKDGIWNGVDYRNGSTVKPYCDTGPVINGSSKAVCVSGKWVPTLGVCPKMCSIGSLKENGKFVDVTATTKGDELNPPPRKVDKDKVQHGVKVVALCKAEDSTTAAEGVQEFECDNGKWKPEPVPCP
modifications: biotinylated with EZ-Link Sulfo-NHS-Biotin where immobilised for SPR
[1]
  koff: 0.00296 s⁻¹
[10]
  Kd: 4.53 nM
